Broadly, the Kd is the equilibrium constant for the complex coming apart. Low values mean a tighter complex, high ones a looser complex. Broadly, the EC50 is the midpoint of the concentration-response curve. High values mean weaker potency, low ones greater potency.

The text below walks through data of US20230250178A1.

For one experiment, the target named is human FcRn (human) (UniProt P55899). Nature of the experiment: SPR pH 6.0, FcRn immobilised.
For experiment [1], the target named is cynomolgus FcRn (cynomolgus) (UniProt Q8SPV9). As to the kind of experiment: SPR pH 6.0, FcRn immobilised.
The next experiment addresses mouse FcRn (mouse) (UniProt Q61559). As to the kind of experiment: SPR pH 6.0, FcRn immobilised.
Experiment [2] deals with FcRn of the FcRn column (Roche, Order No. 8128057001). Nature of the experiment: FcRn affinity chromatography, pH gradient.
In experiment [3] the target is human CCR8 (human) (UniProt P51685). As to the kind of experiment: cell-based or functional assay.
For experiment [4] the target is unchanged. As to the kind of experiment: FACS, BODIPY-labelled antibody, HuT78. (In flow cytometry, cells or beads pass a laser one at a time.)
Experiment [5] deals with cynomolgus CCR8 (cynomolgus). Nature of the experiment: FACS, CHO-cynoCCR8.
For experiment [6], the target named is human CCR8 (human) (UniProt P51685). As to the kind of experiment: FACS, CHO-hCCR8.
Another experiment has as its target murine CCR8 (mouse) (UniProt P56484). As to the kind of experiment: FACS, BODIPY-labelled antibody, BW5147.3.

Sequence of Ustekinumab (antibody) (HC): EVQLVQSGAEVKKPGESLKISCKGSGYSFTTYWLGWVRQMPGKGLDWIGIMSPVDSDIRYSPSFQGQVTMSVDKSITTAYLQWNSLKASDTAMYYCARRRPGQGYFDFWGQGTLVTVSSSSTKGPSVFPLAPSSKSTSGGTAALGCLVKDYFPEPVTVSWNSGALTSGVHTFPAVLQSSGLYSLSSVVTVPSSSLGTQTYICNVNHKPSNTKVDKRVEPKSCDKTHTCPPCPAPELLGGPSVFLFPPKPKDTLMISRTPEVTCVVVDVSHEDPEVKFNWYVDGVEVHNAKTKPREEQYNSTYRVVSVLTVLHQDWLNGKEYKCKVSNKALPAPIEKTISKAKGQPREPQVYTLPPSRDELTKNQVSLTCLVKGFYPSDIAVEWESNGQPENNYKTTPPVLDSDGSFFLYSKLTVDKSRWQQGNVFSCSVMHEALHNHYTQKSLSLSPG
Sequence of Ustekinumab (antibody) (LC): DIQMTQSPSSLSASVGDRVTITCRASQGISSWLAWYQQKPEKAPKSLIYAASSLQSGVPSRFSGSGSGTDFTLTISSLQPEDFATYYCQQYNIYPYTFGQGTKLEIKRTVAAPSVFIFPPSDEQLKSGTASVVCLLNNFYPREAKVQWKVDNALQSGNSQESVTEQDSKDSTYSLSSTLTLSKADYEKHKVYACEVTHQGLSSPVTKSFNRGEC
Sequence of human FcRn (human) (P55899 24-297 limits assumed, form in doubt): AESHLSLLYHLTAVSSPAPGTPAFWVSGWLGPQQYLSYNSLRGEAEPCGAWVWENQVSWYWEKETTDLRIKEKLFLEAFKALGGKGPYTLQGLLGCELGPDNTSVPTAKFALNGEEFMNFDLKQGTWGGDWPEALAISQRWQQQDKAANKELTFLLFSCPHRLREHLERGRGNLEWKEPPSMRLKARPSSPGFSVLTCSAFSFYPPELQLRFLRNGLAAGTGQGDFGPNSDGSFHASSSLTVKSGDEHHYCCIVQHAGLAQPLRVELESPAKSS
Sequence of FcRn of the FcRn column (Roche, Order No. 8128057001) (P55899 24-297, chain 1 of 2): as the sequence (P55899 24-297 limits assumed, form in doubt) above
Sequence of FcRn of the FcRn column (Roche, Order No. 8128057001) (P61769 21-119, chain 2 of 2, further chain): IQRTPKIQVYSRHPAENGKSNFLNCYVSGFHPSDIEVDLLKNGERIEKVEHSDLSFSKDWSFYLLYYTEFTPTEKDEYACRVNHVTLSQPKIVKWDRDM
Sequence of cynomolgus FcRn (cynomolgus) (Q8SPV9 24-297 limits assumed, form in doubt): as the sequence (P55899 24-297 limits assumed, form in doubt) above, with N39D, E44Q, G99S, S189G, S190N, L217M, S269T counted along it
Sequence of mouse FcRn (mouse) (Q61559 22-297 limits assumed, form in doubt): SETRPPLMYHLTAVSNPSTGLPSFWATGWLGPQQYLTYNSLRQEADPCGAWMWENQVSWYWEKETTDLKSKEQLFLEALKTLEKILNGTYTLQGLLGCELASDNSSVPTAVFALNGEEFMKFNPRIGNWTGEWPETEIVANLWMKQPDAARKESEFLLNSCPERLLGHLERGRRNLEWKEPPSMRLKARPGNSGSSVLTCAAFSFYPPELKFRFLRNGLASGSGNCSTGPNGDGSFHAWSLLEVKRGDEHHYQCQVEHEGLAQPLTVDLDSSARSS
Sequence of cynomolgus CCR8 (cynomolgus) (O97665 other isoform, or with tags, fused parts or gaps): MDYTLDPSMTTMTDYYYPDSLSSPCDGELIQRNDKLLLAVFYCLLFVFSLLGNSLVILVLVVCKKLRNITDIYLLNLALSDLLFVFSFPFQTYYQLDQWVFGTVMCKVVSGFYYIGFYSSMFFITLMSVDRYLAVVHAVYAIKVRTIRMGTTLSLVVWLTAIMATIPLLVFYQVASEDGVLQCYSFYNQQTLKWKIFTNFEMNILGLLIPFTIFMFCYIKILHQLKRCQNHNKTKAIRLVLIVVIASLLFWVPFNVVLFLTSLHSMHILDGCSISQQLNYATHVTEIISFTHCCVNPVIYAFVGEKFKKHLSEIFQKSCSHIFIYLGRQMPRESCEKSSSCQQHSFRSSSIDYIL
Sequence of murine CCR8 (mouse) (P56484 whole entry): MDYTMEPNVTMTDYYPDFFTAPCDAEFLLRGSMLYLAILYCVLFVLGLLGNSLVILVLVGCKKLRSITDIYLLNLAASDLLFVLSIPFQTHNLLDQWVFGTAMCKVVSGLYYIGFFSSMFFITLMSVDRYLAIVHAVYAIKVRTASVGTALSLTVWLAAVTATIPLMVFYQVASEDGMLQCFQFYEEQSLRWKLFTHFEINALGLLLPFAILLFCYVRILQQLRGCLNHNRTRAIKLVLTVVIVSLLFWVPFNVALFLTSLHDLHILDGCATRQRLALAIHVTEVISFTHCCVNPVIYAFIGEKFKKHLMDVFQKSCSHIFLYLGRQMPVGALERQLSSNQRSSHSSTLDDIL

Regarding Briakinumab (antibody), the dissociation constant (Kd) with human FcRn (human) worked out at 230 nM; in experiment [1], 160 nM; with mouse FcRn (mouse), 560 nM. This substance also showed a pH at Elution in experiment [2] of 7.85 pH.

Turning to “CCL1 (human) (from UniProt P22362 24-96) (ligand)”, the EC80, β-arrestin signaling (DiscoverX assay) in the experiment with human CCR8 (human) [3] is 0.02 µg/mL.

Turning to L263G8 (antibody), in the experiment with human CCR8 (human) [4], the FACS HuT78 [MFI] is 40 MFI. Besides, the EC50 in experiment [5] came out at 132 nM. Besides, the EC50 with human CCR8 (human) [6] was 0.31 nM. Further, in the experiment with human CCR8 (human) [3], the IC50, Ca flux assay worked out at 1.26 nM and the IC50, inhibition of CCL1 induced β-arrestin signaling stood at 13.8 nM.

SA214G2 (antibody) gave an FACS mBW5147.3 [MFI] with murine CCR8 (mouse) of 48 MFI.

With Ustekinumab (antibody), the Kd with human FcRn (human) came out at 200 nM; in [1], 260 nM; with mouse FcRn (mouse), 71 nM. In [2], this substance came in with a pH at Elution of 7.22 pH.
